Data: PMC11470960 (Immunity, 2024)
Changes are numbered by the printed parent chain. Numbers in names are those of the source.

Experiments:
PLD3 (active) = molecular target: T1, PLD3 (active) (Homo sapiens, UniProt Q8IV08 60-490); test: cryo-EM
T1 sequence: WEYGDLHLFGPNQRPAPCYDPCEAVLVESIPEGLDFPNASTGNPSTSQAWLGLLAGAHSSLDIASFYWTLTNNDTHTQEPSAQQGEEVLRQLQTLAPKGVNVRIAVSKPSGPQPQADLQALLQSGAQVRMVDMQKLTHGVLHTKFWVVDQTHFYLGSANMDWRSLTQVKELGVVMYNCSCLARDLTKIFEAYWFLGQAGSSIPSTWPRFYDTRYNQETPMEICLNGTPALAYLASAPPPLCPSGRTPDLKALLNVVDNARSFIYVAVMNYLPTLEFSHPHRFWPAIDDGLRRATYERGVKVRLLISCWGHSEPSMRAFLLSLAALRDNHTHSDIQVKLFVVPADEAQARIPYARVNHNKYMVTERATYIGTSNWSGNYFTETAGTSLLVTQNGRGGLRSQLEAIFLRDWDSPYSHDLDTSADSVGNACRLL

PLD3(H201N,H416N) = molecular target: T2, PLD3(H201N,H416N) (Homo sapiens, UniProt Q8IV08 60-490, H201N;H416N); test: fluorescence anisotropy
T2 sequence: T1 sequence with H142N, H357N

SEC = molecular target: the molecule itself; test: SEC

UCUCUCUCUCUCUCUCUCUC (ssRNA, phosphorothioate backbone) [(rU*rC*)10 ssRNA]
binding result (PLD3 (active)): binds

AGCUUAACCUG (ssRNA) [RNA9.2s 11 nt]
binding result (PLD3(H201N,H416N)): no binding

B1: PLD3(V232M), soluble catalytic domain (enzyme, human)
chain: T1 sequence with V173M
binding result (SEC): binds
